The target in this assay is GINS complex (Gins51 and Gins23), wild type (Thermococcus kodakarensis). Description: native gel or EMSA. For orientation: In EMSA bound probe runs differently from free probe, usually more slowly.

This passage reports stoichiometry N (PolD per GINS) results from publication PMC9023282.

Values joined by “and” are separate entries in the source; they are usually repeats but may differ in a detail not shown here. Equal values may be shown once.

On to “family D DNA polymerase (PolD), DP1 and DP2 (complex)”, for which the stoichiometry N (PolD per GINS) is 2 and 1.
